Experimental findings from paper PMC1807977 (Nucleic Acids Research, 2007) are described below.

Data set [1] deals with T1, CBP-tagged Tfb2 (purified yeast Tfb2 protein) (S. cerevisiae, UniProt Q02939 1-513).
T1 sequence (looked up): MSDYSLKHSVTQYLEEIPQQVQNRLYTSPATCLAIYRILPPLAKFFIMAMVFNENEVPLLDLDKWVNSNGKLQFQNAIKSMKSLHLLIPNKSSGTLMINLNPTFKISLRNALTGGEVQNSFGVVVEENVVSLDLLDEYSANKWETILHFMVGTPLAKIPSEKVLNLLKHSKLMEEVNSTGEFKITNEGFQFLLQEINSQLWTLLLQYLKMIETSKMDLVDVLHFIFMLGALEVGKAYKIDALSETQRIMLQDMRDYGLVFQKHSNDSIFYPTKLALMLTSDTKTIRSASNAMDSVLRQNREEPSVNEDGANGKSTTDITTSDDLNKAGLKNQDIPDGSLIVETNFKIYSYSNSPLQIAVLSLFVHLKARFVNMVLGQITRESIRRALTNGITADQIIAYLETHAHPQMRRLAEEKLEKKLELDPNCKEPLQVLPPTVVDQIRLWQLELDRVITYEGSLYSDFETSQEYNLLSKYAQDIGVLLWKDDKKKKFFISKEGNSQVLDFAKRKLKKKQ
Briefly: co-IP.

Data set [2] deals with T1, CBP-tagged Tfb2 (purified yeast Tfb2 …). The experiment in a line: pull-down.
The target in the next data set is T2, Tfb5 (Saccharomyces cerevisiae, UniProt Q3E7C1 1-72).
T2 sequence: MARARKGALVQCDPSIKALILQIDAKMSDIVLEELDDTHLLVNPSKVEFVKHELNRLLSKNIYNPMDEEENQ
Briefly: EMSA. In general terms: In EMSA bound probe runs differently from free probe, usually more slowly.

B1: His6-Tfb5 (purified yeast Tfb5 protein) (natural protein, S. cerevisiae, UniProt Q3E7C1 1-72, looked up)
chain: T2 sequence
With B1, the binding result in data set [1] is recorded as “binds”.

B2: His6-Tfb5ΔC14 (domain or fragment, S. cerevisiae, UniProt Q3E7C1 1-58, looked up)
chain: MARARKGALVQCDPSIKALILQIDAKMSDIVLEELDDTHLLVNPSKVEFVKHELNRLL
In the case of B2, in data set [2], the binding result is reported as “binds”.

B3: 79mer ss (ssDNA)
DNA: GGAATTCCGGAATTACAGGCTCTAACACCGAATTACAGGCTCTAACACCGTCTCATCTTCGCTCGTCCACTTTTTTTCG
As for B3, the binding result with Tfb5 is “no binding”.

B4: His6-Tfb5ΔN7 (domain or fragment, S. cerevisiae, UniProt Q3E7C1 8-72, looked up)
chain: ALVQCDPSIKALILQIDAKMSDIVLEELDDTHLLVNPSKVEFVKHELNRLLSKNIYNPMDEEENQ
For B4, in data set [2], the binding result is “binds”.
